According to patent US20180271992A1:

Tests used:
human Trop-2 (human) [1] = target: human Trop-2 (human) (UniProt P09758); test: cell binding assay on Trop-2 expressing cells, cell line not named
human Trop-2 (human) [2] = target: human Trop-2 (human) (UniProt P09758); test: cell binding on NCI-N87 cells, anti-mouse-HRP secondary, luminescence
human Trop-2 (human) [3] = target: human Trop-2 (human) (UniProt P09758); test: cell binding on NCI-N87 cells, maximum binding compared to murine RS7

Sequence of human Trop-2 (human) (P09758 27-323): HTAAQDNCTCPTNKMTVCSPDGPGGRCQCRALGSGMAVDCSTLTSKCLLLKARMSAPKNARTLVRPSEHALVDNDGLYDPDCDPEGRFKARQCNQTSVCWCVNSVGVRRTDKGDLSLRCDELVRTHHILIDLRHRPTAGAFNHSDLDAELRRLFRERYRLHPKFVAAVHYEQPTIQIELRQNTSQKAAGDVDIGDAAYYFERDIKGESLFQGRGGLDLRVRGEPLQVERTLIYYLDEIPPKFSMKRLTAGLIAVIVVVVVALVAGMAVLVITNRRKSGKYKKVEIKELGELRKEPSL

Molecule | Kd (human Trop-2 (human) [1]) [nM] | BMax (maximum binding) (relative luminescent units) (human Trop-2 (human) [2]) | Kd (human Trop-2 (human) [2]) [nM] | reduction of maximum binding relative to RS7 (human Trop-2 (human) [3]) [%]
hRS7-CL2A-SN-38 antibody-drug conjugate | 1.2 | – | – | –
162-46.2 murine monoclonal antibody against human Trop-2 | – | 8470 | – | 25

The next lines start with the values.

Kd (human Trop-2 (human) [1]) [nM] | BMax (maximum binding) (relative luminescent units) (human Trop-2 (human) [2]) | Kd (human Trop-2 (human) [2]) [nM] | reduction of maximum binding relative to RS7 (human Trop-2 (human) [3]) [%] | Molecule
– | 6020 | 0.49 | 50 | MAB650 murine monoclonal antibody against human Trop-2
1.2 | – | – | – | hRS7-CL2-SN-38 antibody-drug conjugate (antibody, INN chains, looked up, V domains shown, SN-38 via CL2 linker) VH: QVQLQQSGSELKKPGASVKVSCKASGYTFTNYGMNWVKQAPGQGLKWMGWINTYTGEPTYTDDFKGRFAFSLDTSVSTAYLQISSLKADDTAVYFCARGGFGSSYWYFDVWGQGSLVTVSS VL: DIQLTQSPSSLSASVGDRVSITCKASQDVSIAVAWYQQKPGKAPKLLIYSASYRYTGVPDRFSGSGSGTDFTLTISSLQPEDFAVYYCQQHYITPLTFGAGTKVEIK
